In patent publication US20140087995A1 (published 2014):
Numbered stars: 1 amine (or outer) side, 2 acyl side, 3 side chain; on linkers, the order of the positions; unused ones are H or OH. Bridge positions count the residues as written; N and C are the ends. Side chains are listed from the residue outwards. Ends that are not written are not given here. * marks the point of attachment. C20 diacid = O=C(O)CCCCCCCCCCCCCCCCCCC(=O)*; γGlu = O=C(O)[C@H](CCC(=O)[*:2])N[*:1]

T1: human calcitonin receptor (human, UniProt P30988 25-474)
T1 sequence (looked up): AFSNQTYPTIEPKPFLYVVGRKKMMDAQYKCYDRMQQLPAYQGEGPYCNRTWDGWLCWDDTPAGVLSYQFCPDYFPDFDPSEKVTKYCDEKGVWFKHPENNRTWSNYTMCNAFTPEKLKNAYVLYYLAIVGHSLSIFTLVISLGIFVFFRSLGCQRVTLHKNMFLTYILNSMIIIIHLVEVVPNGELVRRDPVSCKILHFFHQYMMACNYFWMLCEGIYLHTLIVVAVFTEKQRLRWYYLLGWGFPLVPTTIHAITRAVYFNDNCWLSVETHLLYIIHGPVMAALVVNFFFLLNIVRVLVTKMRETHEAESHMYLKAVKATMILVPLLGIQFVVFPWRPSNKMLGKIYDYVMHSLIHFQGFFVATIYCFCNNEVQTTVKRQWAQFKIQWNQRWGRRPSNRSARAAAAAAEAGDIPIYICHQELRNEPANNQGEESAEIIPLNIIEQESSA

T2: human amylin receptor (amylin 3(a) receptor: human calcitonin receptor co-expressed with RAMP-3) (human, UniProt P30988 25-474; O60896 24-148, limits assumed)
T2 sequence (looked up) 1: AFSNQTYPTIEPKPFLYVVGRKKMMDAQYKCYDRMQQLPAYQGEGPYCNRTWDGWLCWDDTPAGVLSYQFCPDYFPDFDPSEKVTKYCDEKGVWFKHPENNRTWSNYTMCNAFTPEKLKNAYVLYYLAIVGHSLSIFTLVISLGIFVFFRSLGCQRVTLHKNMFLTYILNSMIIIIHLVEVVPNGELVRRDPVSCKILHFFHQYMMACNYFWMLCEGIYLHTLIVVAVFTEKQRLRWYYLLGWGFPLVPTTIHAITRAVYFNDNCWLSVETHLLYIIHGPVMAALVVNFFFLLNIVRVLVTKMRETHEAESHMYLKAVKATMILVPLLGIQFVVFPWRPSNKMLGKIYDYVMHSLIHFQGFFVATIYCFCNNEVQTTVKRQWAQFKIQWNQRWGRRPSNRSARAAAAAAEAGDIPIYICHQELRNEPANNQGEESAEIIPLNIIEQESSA
T2 sequence (looked up) 2: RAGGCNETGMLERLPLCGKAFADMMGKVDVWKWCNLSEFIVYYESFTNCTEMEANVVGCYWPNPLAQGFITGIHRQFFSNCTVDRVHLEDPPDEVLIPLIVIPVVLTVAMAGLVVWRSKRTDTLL

B1: N^ε1-[(4S)-4-carboxy-4-(19-carboxynonadecanoylamino)butanoyl]-[Arg17,Pro21,Pro27,Arg34]-h-amylin (peptide)
peptide: K([γGlu-C20 diacid])CNTATCATQRLANFLRHSSPNFGAIPSSTNVGRNTY-NH2
modifications: disulfide 2-7; N-terminus assumed
SMILES: CC[C@H](C)[C@H](NC(=O)[C@H](C)NC(=O)CNC(=O)[C@H](Cc1ccccc1)NC(=O)[C@H](CC(N)=O)NC(=O)[C@@H]1CCCN1C(=O)[C@H](CO)NC(=O)[C@H](CO)NC(=O)[C@H](Cc1c[nH]cn1)NC(=O)[C@H](CCCNC(=N)N)NC(=O)[C@H](CC(C)C)NC(=O)[C@H](Cc1ccccc1)NC(=O)[C@H](CC(N)=O)NC(=O)[C@H](C)NC(=O)[C@H](CC(C)C)NC(=O)[C@H](CCCNC(=N)N)NC(=O)[C@H](CCC(N)=O)NC(=O)[C@@H](NC(=O)[C@H](C)NC(=O)[C@@H]1CSSC[C@H](NC(=O)[C@@H](N)CCCCNC(=O)CC[C@H](NC(=O)CCCCCCCCCCCCCCCCCCC(=O)O)C(=O)O)C(=O)N[C@@H](CC(N)=O)C(=O)N[C@@H]([C@@H](C)O)C(=O)N[C@@H](C)C(=O)N[C@@H]([C@@H](C)O)C(=O)N1)[C@@H](C)O)C(=O)N1CCC[C@H]1C(=O)N[C@@H](CO)C(=O)N[C@@H](CO)C(=O)N[C@H](C(=O)N[C@@H](CC(N)=O)C(=O)N[C@H](C(=O)NCC(=O)N[C@@H](CCCNC(=N)N)C(=O)N[C@@H](CC(N)=O)C(=O)N[C@H](C(=O)N[C@@H](Cc1ccc(O)cc1)C(N)=O)[C@@H](C)O)C(C)C)[C@@H](C)O
notes: also called compound 79
B2: N^ε1-[(4S)-4-carboxy-4-(19-carboxynonadecanoylamino)butanoyl]-[Arg17,Pro21,Pro27,His34]-h-amylin (peptide)
peptide: K([γGlu-C20 diacid])CNTATCATQRLANFLRHSSPNFGAIPSSTNVGHNTY-NH2
modifications: disulfide 2-7; N-terminus assumed
SMILES: CC[C@H](C)[C@H](NC(=O)[C@H](C)NC(=O)CNC(=O)[C@H](Cc1ccccc1)NC(=O)[C@H](CC(N)=O)NC(=O)[C@@H]1CCCN1C(=O)[C@H](CO)NC(=O)[C@H](CO)NC(=O)[C@H](Cc1c[nH]cn1)NC(=O)[C@H](CCCNC(=N)N)NC(=O)[C@H](CC(C)C)NC(=O)[C@H](Cc1ccccc1)NC(=O)[C@H](CC(N)=O)NC(=O)[C@H](C)NC(=O)[C@H](CC(C)C)NC(=O)[C@H](CCCNC(=N)N)NC(=O)[C@H](CCC(N)=O)NC(=O)[C@@H](NC(=O)[C@H](C)NC(=O)[C@@H]1CSSC[C@H](NC(=O)[C@@H](N)CCCCNC(=O)CC[C@H](NC(=O)CCCCCCCCCCCCCCCCCCC(=O)O)C(=O)O)C(=O)N[C@@H](CC(N)=O)C(=O)N[C@@H]([C@@H](C)O)C(=O)N[C@@H](C)C(=O)N[C@@H]([C@@H](C)O)C(=O)N1)[C@@H](C)O)C(=O)N1CCC[C@H]1C(=O)N[C@@H](CO)C(=O)N[C@@H](CO)C(=O)N[C@H](C(=O)N[C@@H](CC(N)=O)C(=O)N[C@H](C(=O)NCC(=O)N[C@@H](Cc1c[nH]cn1)C(=O)N[C@@H](CC(N)=O)C(=O)N[C@H](C(=O)N[C@@H](Cc1ccc(O)cc1)C(N)=O)[C@@H](C)O)C(C)C)[C@@H](C)O
notes: also called compound 77
B3: N^ε1-[(4S)-4-carboxy-4-(19-carboxynonadecanoylamino)butanoyl]-[His14,Arg17,Pro21,Pro27,His35]-h-amylin (peptide)
peptide: K([γGlu-C20 diacid])CNTATCATQRLAHFLRHSSPNFGAIPSSTNVGSHTY-NH2
modifications: disulfide 2-7; N-terminus assumed
SMILES: CC[C@H](C)[C@H](NC(=O)[C@H](C)NC(=O)CNC(=O)[C@H](Cc1ccccc1)NC(=O)[C@H](CC(N)=O)NC(=O)[C@@H]1CCCN1C(=O)[C@H](CO)NC(=O)[C@H](CO)NC(=O)[C@H](Cc1c[nH]cn1)NC(=O)[C@H](CCCNC(=N)N)NC(=O)[C@H](CC(C)C)NC(=O)[C@H](Cc1ccccc1)NC(=O)[C@H](Cc1c[nH]cn1)NC(=O)[C@H](C)NC(=O)[C@H](CC(C)C)NC(=O)[C@H](CCCNC(=N)N)NC(=O)[C@H](CCC(N)=O)NC(=O)[C@@H](NC(=O)[C@H](C)NC(=O)[C@@H]1CSSC[C@H](NC(=O)[C@@H](N)CCCCNC(=O)CC[C@H](NC(=O)CCCCCCCCCCCCCCCCCCC(=O)O)C(=O)O)C(=O)N[C@@H](CC(N)=O)C(=O)N[C@@H]([C@@H](C)O)C(=O)N[C@@H](C)C(=O)N[C@@H]([C@@H](C)O)C(=O)N1)[C@@H](C)O)C(=O)N1CCC[C@H]1C(=O)N[C@@H](CO)C(=O)N[C@@H](CO)C(=O)N[C@H](C(=O)N[C@@H](CC(N)=O)C(=O)N[C@H](C(=O)NCC(=O)N[C@@H](CO)C(=O)N[C@@H](Cc1c[nH]cn1)C(=O)N[C@H](C(=O)N[C@@H](Cc1ccc(O)cc1)C(N)=O)[C@@H](C)O)C(C)C)[C@@H](C)O
notes: also called compound 66
B4: N^ε1-[(4S)-4-carboxy-4-(19-carboxynonadecanoylamino)butanoyl]-[His14,Arg17,Pro21,Pro27,Arg34]-h-amylin (peptide)
peptide: K([γGlu-C20 diacid])CNTATCATQRLAHFLRHSSPNFGAIPSSTNVGRNTY-NH2
modifications: disulfide 2-7; N-terminus assumed
SMILES: CC[C@H](C)[C@H](NC(=O)[C@H](C)NC(=O)CNC(=O)[C@H](Cc1ccccc1)NC(=O)[C@H](CC(N)=O)NC(=O)[C@@H]1CCCN1C(=O)[C@H](CO)NC(=O)[C@H](CO)NC(=O)[C@H](Cc1c[nH]cn1)NC(=O)[C@H](CCCNC(=N)N)NC(=O)[C@H](CC(C)C)NC(=O)[C@H](Cc1ccccc1)NC(=O)[C@H](Cc1c[nH]cn1)NC(=O)[C@H](C)NC(=O)[C@H](CC(C)C)NC(=O)[C@H](CCCNC(=N)N)NC(=O)[C@H](CCC(N)=O)NC(=O)[C@@H](NC(=O)[C@H](C)NC(=O)[C@@H]1CSSC[C@H](NC(=O)[C@@H](N)CCCCNC(=O)CC[C@H](NC(=O)CCCCCCCCCCCCCCCCCCC(=O)O)C(=O)O)C(=O)N[C@@H](CC(N)=O)C(=O)N[C@@H]([C@@H](C)O)C(=O)N[C@@H](C)C(=O)N[C@@H]([C@@H](C)O)C(=O)N1)[C@@H](C)O)C(=O)N1CCC[C@H]1C(=O)N[C@@H](CO)C(=O)N[C@@H](CO)C(=O)N[C@H](C(=O)N[C@@H](CC(N)=O)C(=O)N[C@H](C(=O)NCC(=O)N[C@@H](CCCNC(=N)N)C(=O)N[C@@H](CC(N)=O)C(=O)N[C@H](C(=O)N[C@@H](Cc1ccc(O)cc1)C(N)=O)[C@@H](C)O)C(C)C)[C@@H](C)O
notes: also called compound 85
B5: N^ε1-[(4S)-4-carboxy-4-(19-carboxynonadecanoylamino)butanoyl]-[Arg17,Pro21,Pro27,His35]-h-amylin (peptide)
peptide: K([γGlu-C20 diacid])CNTATCATQRLANFLRHSSPNFGAIPSSTNVGSHTY-NH2
modifications: disulfide 2-7; N-terminus assumed
SMILES: CC[C@H](C)[C@H](NC(=O)[C@H](C)NC(=O)CNC(=O)[C@H](Cc1ccccc1)NC(=O)[C@H](CC(N)=O)NC(=O)[C@@H]1CCCN1C(=O)[C@H](CO)NC(=O)[C@H](CO)NC(=O)[C@H](Cc1c[nH]cn1)NC(=O)[C@H](CCCNC(=N)N)NC(=O)[C@H](CC(C)C)NC(=O)[C@H](Cc1ccccc1)NC(=O)[C@H](CC(N)=O)NC(=O)[C@H](C)NC(=O)[C@H](CC(C)C)NC(=O)[C@H](CCCNC(=N)N)NC(=O)[C@H](CCC(N)=O)NC(=O)[C@@H](NC(=O)[C@H](C)NC(=O)[C@@H]1CSSC[C@H](NC(=O)[C@@H](N)CCCCNC(=O)CC[C@H](NC(=O)CCCCCCCCCCCCCCCCCCC(=O)O)C(=O)O)C(=O)N[C@@H](CC(N)=O)C(=O)N[C@@H]([C@@H](C)O)C(=O)N[C@@H](C)C(=O)N[C@@H]([C@@H](C)O)C(=O)N1)[C@@H](C)O)C(=O)N1CCC[C@H]1C(=O)N[C@@H](CO)C(=O)N[C@@H](CO)C(=O)N[C@H](C(=O)N[C@@H](CC(N)=O)C(=O)N[C@H](C(=O)NCC(=O)N[C@@H](CO)C(=O)N[C@@H](Cc1c[nH]cn1)C(=O)N[C@H](C(=O)N[C@@H](Cc1ccc(O)cc1)C(N)=O)[C@@H](C)O)C(C)C)[C@@H](C)O
notes: also called compound 60
B6: N^ε1-[(4S)-4-carboxy-4-(19-carboxynonadecanoylamino)butanoyl]-[His14,Arg17,Pro21,Pro27,His34]-h-amylin (peptide)
peptide: K([γGlu-C20 diacid])CNTATCATQRLAHFLRHSSPNFGAIPSSTNVGHNTY-NH2
modifications: disulfide 2-7; N-terminus assumed
SMILES: CC[C@H](C)[C@H](NC(=O)[C@H](C)NC(=O)CNC(=O)[C@H](Cc1ccccc1)NC(=O)[C@H](CC(N)=O)NC(=O)[C@@H]1CCCN1C(=O)[C@H](CO)NC(=O)[C@H](CO)NC(=O)[C@H](Cc1c[nH]cn1)NC(=O)[C@H](CCCNC(=N)N)NC(=O)[C@H](CC(C)C)NC(=O)[C@H](Cc1ccccc1)NC(=O)[C@H](Cc1c[nH]cn1)NC(=O)[C@H](C)NC(=O)[C@H](CC(C)C)NC(=O)[C@H](CCCNC(=N)N)NC(=O)[C@H](CCC(N)=O)NC(=O)[C@@H](NC(=O)[C@H](C)NC(=O)[C@@H]1CSSC[C@H](NC(=O)[C@@H](N)CCCCNC(=O)CC[C@H](NC(=O)CCCCCCCCCCCCCCCCCCC(=O)O)C(=O)O)C(=O)N[C@@H](CC(N)=O)C(=O)N[C@@H]([C@@H](C)O)C(=O)N[C@@H](C)C(=O)N[C@@H]([C@@H](C)O)C(=O)N1)[C@@H](C)O)C(=O)N1CCC[C@H]1C(=O)N[C@@H](CO)C(=O)N[C@@H](CO)C(=O)N[C@H](C(=O)N[C@@H](CC(N)=O)C(=O)N[C@H](C(=O)NCC(=O)N[C@@H](Cc1c[nH]cn1)C(=O)N[C@@H](CC(N)=O)C(=O)N[C@H](C(=O)N[C@@H](Cc1ccc(O)cc1)C(N)=O)[C@@H](C)O)C(C)C)[C@@H](C)O
notes: also called compound 81

Columns and labels:
[1] = target: T1, human calcitonin receptor; assay: cell-based or functional assay
[2] = target: T2, human amylin receptor (amylin 3(a) …); assay: cell-based or functional assay

Binder	hCTR funct. EC50 [1]	Ratio hCT/hAmylin funct. [2]	hAmylin-R funct. EC50 [2]
B1	3.94 nM	24.5	0.161 nM
B2	5.4 nM	–	0.145 nM
B3	0.542 nM	–	0.027 nM
B4	3.88 nM	26.6	0.146 nM
B5	5.36 nM	–	0.351 nM
B6	1.73 nM	–	0.13 nM
